For 25 sequences, protein stability index results are on record in the supplement of paper PMC9732359.

± gives the uncertainty stated by the source.

A short description of this series: protein stability index of a GFP-peptide fusion (yeast GPS) (PSI 1-4); higher = more stable; sorted into four equal gates, so the index is relative within each strain. The method in brief:
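Tiled yeast protein peptides of 17 residues were each joined downstream of GFP, on plasmids that also express Cherry. The pooled library was maintained in yeast, and mid-log cultures in leucine-free medium were sorted into four equal gates on the GFP/Cherry ratio. Plasmids from every gate were amplified by PCR and sequenced on Illumina, with barcodes linking reads to strains. The protein stability index of a peptide is its gate-number-weighted read frequency summed over the gates.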

On to PRSDAQAIKEASYVNIP [RPS0A], for which the protein stability index reads like this: (doa10∆) 2.88 ± 0.058; (pdr5∆) 2.76 ± 0.048; (san1∆) 2.71 ± 0.058; (ubr1∆) 2.47 ± 0.034.

For PRVKGFKMNEIVPLHSP [SEC65], the protein stability index reads like this: (doa10∆) 2.89 ± 0.087; (pdr5∆) 3.01 ± 0.12; (san1∆) 3.09 ± 0.079; (ubr1∆) 2.87 ± 0.066.

As to PRVQGFYVPQARNVTFD [GRR1], the protein stability index runs as follows: (doa10∆) 2.99 ± 0.064; (pdr5∆) 2.68 ± 0.056; (san1∆) 2.91 ± 0.038; (ubr1∆) 3.02 ± 0.045.

With PRYTYHTIFSDVCKTRF [YML031W/NDC1], the protein stability index was determined as 2.77 ± 0.055 (doa10∆), 3 ± 0.051 (pdr5∆), 2.62 ± 0.035 (san1∆) and 2.82 ± 0.055 (ubr1∆).

Consider PSAVAGFINQKNLKPQE [YIL149C/MLP2], for which the protein stability index is, setting by setting: (doa10∆) 3.16 ± 0.099; (pdr5∆) 3.1 ± 0.084; (san1∆) 2.98 ± 0.05; (ubr1∆) 3.02 ± 0.042.

PSINLDPDNTSFSDENS [ESC2]: the protein stability index worked out at 2.83 ± 0.072 (doa10∆), 2.93 ± 0.054 (pdr5∆), 2.58 ± 0.064 (san1∆) and 3.07 ± 0.029 (ubr1∆).

On to PSKVSKIDSHVVLSFSG [PRE6], for which the protein stability index reads like this: (doa10∆) 1.71 ± 0.062; (pdr5∆) 1.77 ± 0.058; (san1∆) 1.74 ± 0.12; (ubr1∆) 1.87 ± 0.057.

The sequence PSLEVASEYIETLGLKY [FAS1] gave a protein stability index (doa10∆) of 3.02 ± 0.069, a protein stability index (pdr5∆) of 3.3 ± 0.082, a protein stability index (san1∆) of 3.21 ± 0.07 and a protein stability index (ubr1∆) of 3.05 ± 0.067.

Take PSQTLFSISYKPPTQKT [SRP21]: the protein stability index runs as follows: (doa10∆) 2.23 ± 0.036; (pdr5∆) 2.2 ± 0.039; (san1∆) 1.97 ± 0.056; (ubr1∆) 2.1 ± 0.032.

Consider PSSEVYSPIEKESPWKI [RRP6], for which the protein stability index by setting is: (doa10∆) 2.87 ± 0.15; (pdr5∆) 3.03 ± 0.1; (san1∆) 2.82 ± 0.12; (ubr1∆) 3.29 ± 0.11.

With PSTSSNMDVGNPRKRKA [GAL11], the protein stability index worked out at 2.65 ± 0.18 (doa10∆), 2.25 ± 0.12 (pdr5∆), 2.75 ± 0.12 (san1∆) and 3.27 ± 0.088 (ubr1∆).

Regarding PSTTDDENGDKNDNGGK [SWI3], the protein stability index was determined as 3.09 ± 0.089 (doa10∆), 3.3 ± 0.069 (pdr5∆), 3.23 ± 0.05 (san1∆) and 3.25 ± 0.079 (ubr1∆).

For the sequence PSVAAEYVYFFNNTSVI [RPC40], the protein stability index stood at 2.09 ± 0.056 (doa10∆), 1.48 ± 0.057 (pdr5∆), 1.54 ± 0.088 (san1∆) and 1.79 ± 0.039 (ubr1∆).

Consider PSYSPTSPSYSPTSPSY [RPO21], for which the protein stability index stood at 2.65 ± 0.03 (doa10∆), 2.884 ± 0.028 (pdr5∆), 2.859 ± 0.028 (san1∆) and 2.815 ± 0.023 (ubr1∆).

Consider PTETYSDVGGLDKQIEE [RPT5], for which the protein stability index stood at 3.36 ± 0.21 (doa10∆), 3.35 ± 0.11 (pdr5∆), 3.12 ± 0.068 (san1∆) and 3.21 ± 0.13 (ubr1∆).

Take PTQTKGNDAKPAKVEDV [YLR335W/NUP2]: the protein stability index (doa10∆) was 3.21 ± 0.057, the protein stability index (pdr5∆) stood at 3.25 ± 0.053, the protein stability index (san1∆) came to 3.27 ± 0.039 and the protein stability index (ubr1∆) is 3.1 ± 0.047.

For PTSPSYSPTSPSYSPTS [RPO21], the protein stability index by setting is: (doa10∆) 2.59 ± 0.044; (pdr5∆) 2.99 ± 0.041; (san1∆) 2.66 ± 0.04; (ubr1∆) 2.85 ± 0.037.

Take PTSVKLLKTTVPIVSKK [POP3]: the protein stability index reads like this: (doa10∆) 3.21 ± 0.1; (pdr5∆) 2.94 ± 0.068; (san1∆) 2.86 ± 0.083; (ubr1∆) 3 ± 0.075.

PTTMVTNQKDTNDHVDK [ISW2] came in with a protein stability index (doa10∆) of 1.96 ± 0.062, a protein stability index (pdr5∆) of 2.03 ± 0.064, a protein stability index (san1∆) of 1.67 ± 0.1 and a protein stability index (ubr1∆) of 1.75 ± 0.055.

With PTTVSYIFCISRTIGMV [SCL1], the protein stability index was 1.99 ± 0.039 (doa10∆), 1.97 ± 0.051 (pdr5∆), 2.88 ± 0.036 (san1∆) and 1.95 ± 0.039 (ubr1∆).

With PTVKYNRKVRAGRGFTL [RPL13A], the protein stability index was 2.62 ± 0.059 (doa10∆), 2.87 ± 0.058 (pdr5∆), 2.94 ± 0.045 (san1∆) and 2.78 ± 0.053 (ubr1∆).

Turning to PVLNLDKLWTLIPEDKR [RPL28], the protein stability index is, setting by setting: (doa10∆) 1.54 ± 0.056; (pdr5∆) 1.45 ± 0.058; (san1∆) 2.04 ± 0.071; (ubr1∆) 1.17 ± 0.036.

In the case of PVLSTIAFLVGLVNPKT [SWI3], the protein stability index stood at 2.98 ± 0.085 (doa10∆), 2.52 ± 0.058 (pdr5∆), 2.33 ± 0.066 (san1∆) and 2.86 ± 0.042 (ubr1∆).

Regarding PVNTGVLHVSAKGKSGV [RRP40], the protein stability index by setting is: (doa10∆) 2.48 ± 0.1; (pdr5∆) 2.1 ± 0.097; (san1∆) 2.62 ± 0.14; (ubr1∆) 2.64 ± 0.13.

Take PVPSDSTRKKGGRRGRR [RPS14B]: the protein stability index reads like this: (doa10∆) 3.22 ± 0.092; (pdr5∆) 3.45 ± 0.074; (san1∆) 3.31 ± 0.069; (ubr1∆) 3.27 ± 0.071.
